Test results published in a protein production outcome set (Wang et al. 2014).

Test: label from the status in PepcDB records
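Note: failed if final PepcDB status was selected cloned or expressed and not failed if soluble or beyond.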

Sequence	protein production
MCARPCRPTNLPTRFSMSNSDPSPTLEGNYDLLFRFAFWLFVGAISFSVAGMLLLRLVPSSMAIFGPIYTKLVKTPTWTFMTLLALLPLLMYGPTLGWKKISLIAAWGCIIGGASELIGTTGWLNVGGIALPFGEYEYTQWLGPKIAGHVPYFIPPSWFAMSIVSLDLARRVTTQRVGSLLLGTLFMVLWDVSLDPAMNQAFPFWEYGVDGVFFGMPLSNWAGWAGVTFVILLGYEYIGKGAPIQNEWAPWVYALNCIFPLSICLLRDVYLPALIGGLATLVPFLLLWRYNPDSLKRSVSLFRG	failed
MEKNRRGIQSVELGSRVLQALAQFGRPAGLTELAQECDMPPGKVHPYLVSFMKVGFVARDPASGLYELGHLALELGLAKLHRLDPVREASQAIADLAAETGHGTGLVVWGNLGPTLIRLEEPAHPLHVNLRIGTVMSLVHTATGRLFAAYLPAKVVSRVLEADPMGVHFGSRHQSRPAQEDYERQLSEIRSRGISRTLGSPIPGIDAFCAPVFDSMGHIAAGLLVMGPSATFDSDWDGQIATRLHACANDISRKLGYIDTPASPRAAR	failed
MDVTVSTDDGYRVNNLGLMSSRQNYMIFGGFVAIAGIIIVLVGEKFKPSANSVKCPYCAELISAEAVKCKHCGSDVTPSKTIVSADDAEASDRLADVNVKLIAGVVLAVFAAIIGAIIFHRQ	failed
MKRSIEDTPIVLIGAGNLATNLAKALYRKGFRIVQVYSRTEESARELAQKVEAEYTTDLAEVNPYAKLYIVSLKDSAFAELLQGIVEGKREEALMVHTAGSIPMNVWEGHVPHYGVFYPMQTFSKQREVDFKEIPFFIEASSTEDAAFLKAIASTLSNRVYDADSEQRKSLHLAAVFTCNFTNHMYALAAELLKKYNLPFDVMLPLIDETARKVHELEPKTAQTGPAIRYDENVIGNHLRMLADDPAMQRLYELLSRSIHERQ	not failed
PVRLEGDQVAAAEALVAAVAADSYSTTLLKGVTGSGKTEVYLEAVAECLRRGRQALVLLPEIALTSEFLARVEARFGARPAEWHSGVTATERRRLWRMVSEGQAQFVAGARSALFLPFRDLGLVVVDEEHDTSYKQEEGALYNARDMAVLRASICGCPAVLASATP	failed
YYLIVSQLLGDTASVKLLVPPGANPHLFSLKPSDAKTLEEADLIVANGLGLEPYLEKYREKTVFVSDFIPALLLIDDNPHIWLDPFFLKYYIVPGLYQVLIEKFPEKQSEIKQKAEEIVSGLDTVIRDSFKALLPYTGKTVVMAHPSFTYFFKEFGLELITLSSGHEHSTSFSTIKEILRKKEQIVALFREPQQPAEILSSLEKELRMKSFVLDPLGVNGEKTIVELLRKNLSVIQEALK	not failed
MTAEDGAAYIAFLADPQPSAQWVGRRGTPRDRHDWRPFEGPLSPASIRHARKILSTLYGCLIEQGHARANPFEVLSLPTGGDAPRIQVARSFTEPQWRFLLRHVSSLPADDPRAARLTFMLHLAHASGLRISEQAVATVGHLTWSGHWTLAVPGPKPRQIPLPEAVIDALRGHLAARGLGRGFESLPAATPLIGRVKTGDEGDALSVAQIGAIWKRYFAQAATLAGGEDDAAQLAQASAHWMRHTAGAHAVARGVALEVVQQQLGHASLDTTSMYVLAA	failed
MLVLSYILLFASALFAWNMGSHYSGAVMGMAYGSKSLTIRQATVIAATFAFLGTITASSGVVHTYAFSLVGTTTIRQLTAALLGASVAILISTILKLPASTIQVYTFSLLFVGLASNIKLMYGGIEIVLSMWILMPLAAMLLSYLLAPKLVSKLADDSRKLKIIIIGSSVFSSFTLGSNDVSSAISPLVKVGILTGIVPYVFGGFFIGLGLITWGQRLIRRVGTEVVKTNAPLAAAAQLTEAIVIISGNLVGYNASINQTIIMSIYGAKRSMKSHVVTPMIFRSILLNWTVSSLISAVFGLFFLFILNLYI	failed
MKEPPMTKTVFHLGVTEADLNGATLAIIPGDPARVQKIAELMDNPVFLASHREYTVYRAELDGQSVVVCSTGIGGPSTSIAVEELAQLGVRTFLRVGTTGAIQPHVNVGDMIVTTGSVRLDGASLHFAPMEFPAVPDFDVATAMKAAAQESGATVHMGVTASSDTFYPGQERYDTFTGRVVRRFQGSMKEWQDMGVLNFEMESATLLTMCASSGLKAGCVAGVIINRTQKEIPDHATLKETEARSIKVVVEAARKMLK	not failed
MDSFKVVLEGPAPWGFRLQGGKDFNVPLSISRLTPGGKAAQAGVAVGDWVLSIDGENAGSLTHIEAQNKIRACGERLSLGLSRAQPAQSKPQKALTPPADPPRYTFAPSASLNKTARPFGAPPPTDSALSQNGQLLRQLVPDASKQRLMENTEDWRPRPGTGQSRSFRILAHLTGTEFMQDPDEEFMKKSSQVPRTEAPAPASTIPQESWPGPTTPSPTSRPPWAVDPAFAERYAPDKTSTVLTRHSQPATPTPLQNRTSIVQAAAGGGTGGGSNNGKTPVCHQCHKIIRGRYLVALGHAYHPEEFVCSQCGKVLEEGGFFEEKGAIFCPSCYDVRYAPSCAKCKKKITGEIMHALKMTWHVPCFTCAACKTPIRNRAFYMEEGAPYCERDYEKMFGTKCRGCDFKIDAGDRFLEALGFSWHDTCFVCAICQINLEGKTFYSKKDKPLCKSHAFSHV	failed
MNIAISGASGFIGKHLTEYLTEAGHRVVPLGRPMFREGTSGHLIQALSHCDVIINLAGAPIGKRWTPEYKKELYDSRIKVTHCIIRAMDAVKTKPRLMISASAVGYYPEEGTFDEYTNTRGSGFLAELCYAWEKEARRCPSQTRLVITRFGIVLSPDGGAMEQMLRPLRITRVAGVIGPGTQPFPWIAIQDLCRAMEFIIRHEEASGVFNLVAPQQVSQYAFTQAMAARYHAWMKVVVPRWFFRMRYGEAASFLASGQNVRPTRLLEAGFRFAKPTIEDFFEGTDHAVVDRLDLHRYMGTWYEIARFDHRFERGLSEVTATYTLMPDGTVRVENRGCKHKKPYDVCKTAEGRAKIPDPSQPGKLKVSFFLSFYSDYYVLELDQDEYNYALIGSSSDKYLWILSRAPILPEEIKKKLLDAATRRGYDVKKLIWVEQREKKIM	failed
MNSFWLSLAPVLWLTIIAIPVGILFNAAIVFGLYSIILLGIVIYHIHTLYCLEQWLHHSDLSYATVPDRSGLWGVVFARLARFVRRHDKERLGLNTSLERLQRATSALPEGIVILGDKDQIEWCNSAAERHLGLNLEMDAGQHITRMVRQVRFVAYLDMGDFSKPFLLNQSRLRDVLLSIQIVPYGDREKLLISQDVTRFEKIEIMRRDFVANVSHELRTPLTVIGGFLETLLEENKISGEMEKNALRLMSDQAIRMRRLVEDLLTLSRLENAGNNLTEEQVDVVKLLQGLYQEAQSLSAGRHVISLNLASHAMLLGSEDELRSAFENLISNAVRYTPESGIISLNWVVENGKGLFYVQDSGIGIEPNHIPRLTERFYRVDRSRSRETGGTGLGLAIVKHVLNRHQASMEITSQPGAGSIFRIWFPSNRVLPAETAPVISSSPEHTKQNSAA	failed
MEQRIWDLFGISADGNISRGNSGCVHTRNNKKEGDVLKVLTYVMLASVILFTTTYLILYLTYAKPVEIDVPFYGAPRGYTTITYEEVILPLTGKYKIENCYVQDSRSIYSNEGYLSERGVRIIVGNYTEDVYVRLIPQKMIPSEIIFLLMVGGVLGYVGDRMFKFK	failed
EKGLEIAQERKARDEGWGDSIATMEMILKNAQGESSTRLMRLKSLEVEGDGDKGLTIFDQPRDVTGTAFLNHSHTIGADDQWLYLPALKRVKRISSRNKSGPFMGSEFAYEDLSSFEIEKYRFNHLKDEKFNGQDVFVLEQIPTDKNSGYTKQVVWLDKAHYRPLKVEFYDRKGALLKTLTFANYKQYLDKYWRAHTMAMTNHQTGKSTELNTSDLRFQTGLEENDFNKNVLKR	not failed
MSQLEKAQAEYAGFIQEFQSAIISTISEQGIPNGSYAPFVIDDAKNIYIYVSGLAVHTKNIEANPLVNVLFVDDEAKTNQIFARRRLSFDCTATLIERESQKWNQVVDQFQERFGQIIEVLRGLADFRIFQLTPKEGRFVIGFGA	not failed
MLGGTAPKIAKAYQKTLTTNLNDVKNRLKDVTFKPKVLHFVNATNLNQVDGTGTIVNEWIKAAGGQNALKQKGNMISVTTETLAKSDPDVIIVGSATTAEARAALKKNAVLSKLTAVKKNRVYGNPQGTFPWDRYSAEEALQVLWAAKKLHPDQFQLEHHHHHH	not failed
MTNLRKILLIPALIVVSVSSFFSCGVDRWPEYAHLTELDTWMYDIMQQNYLWYQYMPGYDEVNLFQDPATFLSKAKWDKDSYSFVDSVLEAPLPTYGFDYSLVKSQDNDTAYNALITYVIPESPAEKAGLQRGDWIMKVDTSYISKKYETQLLQGTIARELSMGVWKEVEEEPEEGEEVPEEPVMVYKVVPNGVTLDLGAAQSIEDQPVHKYKILTLDNGAKVGYLMYNSFTAGTNNDPEKYNNELRKVSTIFQEANVQATILDLRYNEGGSLDCVQLLATILVPNARMGTPMAYLEYNDKNLDKDATINFDQEVLKTGVNLNQNTLVAITSGTTAGAAEMLLTSLYKEEQAPNIIVMGSASKGQTVATEQFINETYRWSVNPVVCTVYNSDHDAGEDAFVLVPSDKFKISETSINGTTDYSQFLPFGNPKERMLSIAIQTLEGTYPPKDEDKEEETRSTKSIKIEKSVSSPASRRFAGGLRIK	failed
QVSDEDVMLMIRQGAKKGVFESVEYEMISRIFRMSDKRASALMTPRNEIEWLDLERPDEELVARIKASGRSRFPVAKGSLDELQGVVRSLDLVNFSLSSKGSIREAIRASMKPPLFVPESVPAFHVLELFKKNRAHMALVIDEHGSVQGAITLTDVLESIVGDVPADDMEGD	failed
MFKLHILFALSAPQRIAFWVWRGLFVVALAAAGIGSTRAQSYSFRDYAQSDGLQGMSITGLVEDRRGVVWVATELALHRFERDRFIPVGQDQGLDARYTRALTLDHAGRLWVATANGVFVRNGEQFVQVLDHGKRIRADAGNVIAAYRTGVAVASNGALLALTPEADGHWQVQPLPVRTADGKLREPGTTLLADGQFLWVPCDGGVCRLDARGTVVEALSEADGVPARRWRVIFRERGGRLWLRGGGTIVSRAPGGARFTEHPANPENSFNTLSGSTTMVEDARGRMLTRSDHGLVRWEGTHWTDIGADQGLQLNALVGPLLLQSNGTLWLGTRGMGLQRVLGYDSIEHLTEAQGMPPAPTWTMQRLPNGMLAVGADGGASLLKRNATHAQPWLLEDGAVLSQALNITVAPDGAAWVSYYSGAIARRDPLTGVTSRVMDLPIAGYKLLFDKAGTVWIATPRGLVRGQAAPPYALAPDPAMEGKFIGDIDFDRQGRLWAATRDGLYRRNGTTWVKIPVRGSLPSQDMLQIDFAPNGEIWLSLRDTGLWHGRLQGDGSLLLQAVDDPLISRIMPYILRHDRKGRLWVGSSQGLDLYQNGHWSRITRAEGLLWDDMSSNAFLEDDDGSIWIGSSRGLSHLRDPQRLFAAQPLRVDIAEVRRGAQIVHSGASIAWSETPLEIELSTPGVEGGANRISFRYRVQARWTTSSLSHLTYPLLPPGNYTLEVQALDAYQRSASPIARFQFVIRPPWWRSIAAIAGYLLLAVVAVIALLRWRTAKLLRRKHELEQLVAERTAELEQDKRDLEAARAELSLKATHDELTGLLNRAGILAALREMLLHAARSGRPLAVVLIDLDHFKLVNDQHGHLAGDAVLAGVGHRMDTLVRGDDRIGRYGGEELLALLPGLTPGATHRLDAMHRGICGDYPVDDGWLHVTCSIGVAWFQAGETLEQLLARADAALYRAKRSGRNRIDYDHVPLDRLGQVLPLDPQQRE	failed
MTGLINAIPATNKDEYKNVGVYIEHRGDELKRPSIEMIGIGKQLARKVNEKLICVVIGDKVDGIAKEVGEYGCDIVLAAESPELAEYRTMPYAEIIGGYIQEYKPNIFLLAATRNGRDLASRIAVKSRTGITADCTVLDIDENRTLLANRPTYGESTLAEILCRNHRPQMATARPGIFPPAEKEKDHKYEVIKKKVDVDKKLLGKQILKFI	not failed
